Data taken from patent US20260008815A1, “CYCLIC PEPTIDE OR SALT THEREOF, AND USES THEREOF” (FUJIFILM Corporation, priority 2023, published 2026).
Bridge positions count the residues as written; N and C are the ends. Ends that are not written are not given here. COCH2 = acetyl group that carries the bridge

Target: T1, Recombinant Human FGFR2 alpha (IIIc) Fc Chimera Protein (Homo sapiens, UniProt P21802)
T1 construct: Fc (chimera); purchased R&D systems 712-FR-050
Test: ELISA binding affinity of enzymatically synthesized peptide to FGFR
Conditions: ELISA luminescence signal at 10 nmol/L peptide, SEQ ID NO: 47 at 10 nmol/L standardized to 1; enzyme synthesis product
Method: The binding affinity of the peptide to FGFR was evaluated using an ELISA method.
The binding affinity of the enzymatically synthesized peptide to FGFR was measured by evaluating the amount of the peptide bound to FGFR by ELISA.
First, 5 ng of Recombinant Human FGFR2 alpha (IIIc) Fc Chimera Protein (R&D systems, 712-FR-050) was immobilized in each well of a 96-well plate, and blocked with Pierce Protein-Free (PBS) Blocking Buffer (Thermo, 37572), and a peptide diluted with Can Get Signal Immunoreaction Enhancer Solution I (TOYOBO, NKB-101) was then added and reacted at room temperature for 3 hours. After washing with 0.05% Tween 20-containing phosphate buffered saline (PBS), an anti-Myc antibody (Cell Signaling, 14038S) diluted with Can Get Signal Immunoreaction Enhancer Solution II (TOYOBO, NKB-101) was added and reacted at room temperature for 2 hours. After washing with 0.05% Tween 20-containing PBS, SuperSignal ELISA Femto Substrate (Thermo, 37075) was added, and the luminescence amount was measured. The dose-response relationship was calculated from using the difference between the luminescence amount in the well in which FGFR was immobilized and the luminescence amount in the well in which FGFR was not immobilized, and the concentration of the peptide at the time of reaction, and the binding affinity to FGFR was evaluated according to the following evaluation criteria. The evaluation result preferably satisfies the evaluation criteria A, B, or C.
In a case where a value of a luminescence signal emitted by the cyclic peptide set forth in SEQ ID NO: 47 at a reaction concentration of 10 nmol/L is standardized to 1, evaluation criteria of the luminescence signal value emitted by the cyclic peptide at a reaction concentration of 10 nmol/L is as follows. • A: 0.7 or more • B: 0.5 or more and less than 0.7 • C: 0.1 or more and less than 0.5 • D: less than 0.1.

T1 sequence (P21802 with tags, fused parts or gaps limits assumed): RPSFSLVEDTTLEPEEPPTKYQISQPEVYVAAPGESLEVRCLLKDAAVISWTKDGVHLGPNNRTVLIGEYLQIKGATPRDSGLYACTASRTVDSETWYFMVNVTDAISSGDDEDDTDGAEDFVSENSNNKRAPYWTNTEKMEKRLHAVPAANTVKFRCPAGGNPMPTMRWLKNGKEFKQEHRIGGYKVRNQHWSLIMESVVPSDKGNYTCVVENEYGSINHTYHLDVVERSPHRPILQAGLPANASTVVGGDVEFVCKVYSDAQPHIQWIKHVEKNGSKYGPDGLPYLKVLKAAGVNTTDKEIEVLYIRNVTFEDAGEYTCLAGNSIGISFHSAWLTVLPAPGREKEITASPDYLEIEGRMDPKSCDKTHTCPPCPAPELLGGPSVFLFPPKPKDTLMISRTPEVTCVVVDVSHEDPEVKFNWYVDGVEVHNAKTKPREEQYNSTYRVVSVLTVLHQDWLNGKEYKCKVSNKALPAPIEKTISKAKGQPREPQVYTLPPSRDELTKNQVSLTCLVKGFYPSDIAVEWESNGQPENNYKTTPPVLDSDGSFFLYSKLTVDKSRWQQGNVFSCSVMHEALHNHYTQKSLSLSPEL

Substance	Evaluation result of binding affinity to FGFR
109 (DCFINELQYFYIQQYK(COCH2)K; thioether 2-16 (inferred)) [compound 109]	B (0.5 or more and less than 0.7)
110 (QCQTDHQQQLYFIYQYLQK(COCH2)I; thioether 2-19 (inferred)) [compound 110]	C (0.1 or more and less than 0.5)
111 (QCDQEFYLALYAWTLRSYK(COCH2)L; thioether 2-19 (inferred)) [compound 111]	C (0.1 or more and less than 0.5)
112 (HCQPEYELYYIYLYLNALK(COCH2)I; thioether 2-19 (inferred)) [compound 112]	C (0.1 or more and less than 0.5)
113 (RCINYWSGQQFYFFQQYK(COCH2)F; thioether 2-18 (inferred)) [compound 113]	C (0.1 or more and less than 0.5)
114 (YCTDNYIDDIQFWYLFLYK(COCH2)H; thioether 2-19 (inferred)) [compound 114]	A (0.7 or more)
115 (NCPNYWSQIQWHYFQAYK(COCH2)Q; thioether 2-18 (inferred)) [compound 115]	A (0.7 or more)
116 (QCYQNWYLYQYLVERYYK(COCH2)D; thioether 2-18 (inferred)) [compound 116]	C (0.1 or more and less than 0.5)
117 (LCRNYINPQQWRYFALYK(COCH2)N; thioether 2-18 (inferred)) [compound 117]	A (0.7 or more)
118 (LCPVPQQTDYLRWYQIIHK(COCH2)Q; thioether 2-19 (inferred)) [compound 118]	C (0.1 or more and less than 0.5)
119 (QCRYFWQYVLERYRVRLPK(COCH2)E; thioether 2-19 (inferred)) [compound 119]	A (0.7 or more)
120 (QCWYIQQYIWERYFLWHNK(COCH2)E; thioether 2-19 (inferred)) [compound 120]	C (0.1 or more and less than 0.5)
121 (DCYWDDQQYSFLQLYK(COCH2)R; thioether 2-16 (inferred)) [compound 121]	A (0.7 or more)
122 (QCENWVNSTQFEFFWQYK(COCH2)T; thioether 2-18 (inferred)) [compound 122]	B (0.5 or more and less than 0.7)
123 (QCQNFITEVQFTYFWHYK(COCH2)T; thioether 2-18 (inferred)) [compound 123]	A (0.7 or more)
124 (DCRDLQLFYIYQYLDALK(COCH2)K; thioether 2-18 (inferred)) [compound 124]	C (0.1 or more and less than 0.5)
125 (YCRDNYFYLEQWQYLYLYK(COCH2)H; thioether 2-19 (inferred)) [compound 125]	A (0.7 or more)
126 (LCEINWLSQEQYGYFIEYK(COCH2)T; thioether 2-19 (inferred)) [compound 126]	A (0.7 or more)
127 (YCPYNFYNIIQFHYFLTYK(COCH2)T; thioether 2-19 (inferred)) [compound 127]	A (0.7 or more)
128 (PCVQNYFNDLQWIFLQHYK(COCH2)R; thioether 2-19 (inferred)) [compound 128]	A (0.7 or more)
129 (ECPWNFVNQLQWQYFITYK(COCH2)V; thioether 2-19 (inferred)) [compound 129]	A (0.7 or more)
130 (HCDGNWWNSQQFFYLLLYK(COCH2)H; thioether 2-19 (inferred)) [compound 130]	A (0.7 or more)

The next lines start with the values.

Evaluation result of binding affinity to FGFR	Substance
A (0.7 or more)	131 (YCEENYLDPEQYQYFIYFK(COCH2)Y; thioether 2-19 (inferred)) [compound 131]
A (0.7 or more)	132 (ECQENFVDRQQYWYFLSYK(COCH2)F; thioether 2-19 (inferred)) [compound 132]
A (0.7 or more)	133 (ECLGNYFSHEQYQYLLQYK(COCH2)I; thioether 2-19 (inferred)) [compound 133]
C (0.1 or more and less than 0.5)	134 (LCADQYDYLLQYVFWRTYK(COCH2)I; thioether 2-19 (inferred)) [compound 134]
C (0.1 or more and less than 0.5)	135 (QCTYLAQYLVERYHLTK(COCH2)T; thioether 2-17 (inferred)) [compound 135]
A (0.7 or more)	136 (GCEENYLDPEQYQYFIYFK(COCH2)Y; thioether 2-19 (inferred)) [compound 136]
A (0.7 or more)	137 (PCEENYLDPEQYQYFIYFK(COCH2)Y; thioether 2-19 (inferred)) [compound 137]
A (0.7 or more)	138 (LCEENYLDPEQYQYFIYFK(COCH2)Y; thioether 2-19 (inferred)) [compound 138]
A (0.7 or more)	139 (ICEENYLDPEQYQYFIYFK(COCH2)Y; thioether 2-19 (inferred)) [compound 139]
A (0.7 or more)	140 (VCEENYLDPEQYQYFIYFKY; Description of Artificial Sequence: Cyclic peptide) [compound 140]
A (0.7 or more)	141 (FCEENYLDPEQYQYFIYFKY; Description of Artificial Sequence: Cyclic peptide) [compound 141]
A (0.7 or more)	142 (WCEENYLDPEQYQYFIYFKY; Description of Artificial Sequence: Cyclic peptide) [compound 142]
A (0.7 or more)	143 (NCEENYLDPEQYQYFIYFKY; Description of Artificial Sequence: Cyclic peptide) [compound 143]
A (0.7 or more)	144 (QCEENYLDPEQYQYFIYFKY; Description of Artificial Sequence: Cyclic peptide) [compound 144]
A (0.7 or more)	145 (SCEENYLDPEQYQYFIYFKY; Description of Artificial Sequence: Cyclic peptide) [compound 145]
A (0.7 or more)	146 (TCEENYLDPEQYQYFIYFKY; Description of Artificial Sequence: Cyclic peptide) [compound 146]
A (0.7 or more)	147 (DCEENYLDPEQYQYFIYFKY; Description of Artificial Sequence: Cyclic peptide) [compound 147]
A (0.7 or more)	148 (ECEENYLDPEQYQYFIYFKY; Description of Artificial Sequence: Cyclic peptide) [compound 148]
A (0.7 or more)	149 (RCEENYLDPEQYQYFIYFKY; Description of Artificial Sequence: Cyclic peptide) [compound 149]
A (0.7 or more)	150 (HCEENYLDPEQYQYFIYFK(COCH2)Y; thioether 2-19 (inferred)) [compound 150]
A (0.7 or more)	151 (YCGENYLDPEQYQYFIYFK(COCH2)Y; thioether 2-19 (inferred)) [compound 151]
A (0.7 or more)	152 (YCPENYLDPEQYQYFIYFK(COCH2)Y; thioether 2-19 (inferred)) [compound 152]
A (0.7 or more)	153 (YCLENYLDPEQYQYFIYFK(COCH2)Y; thioether 2-19 (inferred)) [compound 153]
A (0.7 or more)	154 (YCIENYLDPEQYQYFIYFK(COCH2)Y; thioether 2-19 (inferred)) [compound 154]
A (0.7 or more)	155 (YCVENYLDPEQYQYFIYFK(COCH2)Y; thioether 2-19 (inferred)) [compound 155]
A (0.7 or more)	156 (YCFENYLDPEQYQYFIYFK(COCH2)Y; thioether 2-19 (inferred)) [compound 156]
A (0.7 or more)	157 (YCYENYLDPEQYQYFIYFK(COCH2)Y; thioether 2-19 (inferred)) [compound 157]
A (0.7 or more)	158 (YCWENYLDPEQYQYFIYFK(COCH2)Y; thioether 2-19 (inferred)) [compound 158]
